The values below come from US20160122421A1 (IPIERIAN, published 2016).

T1: eTau 1b
T1 construct: member of the group m9
T1 polypeptide: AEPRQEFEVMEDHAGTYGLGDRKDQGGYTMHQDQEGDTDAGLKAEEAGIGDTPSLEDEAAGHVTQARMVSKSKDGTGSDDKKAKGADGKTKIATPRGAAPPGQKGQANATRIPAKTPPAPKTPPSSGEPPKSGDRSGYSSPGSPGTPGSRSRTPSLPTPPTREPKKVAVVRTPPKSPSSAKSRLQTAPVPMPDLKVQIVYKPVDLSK

T2: eTau 2
T2 construct: member of the group m9
T2 polypeptide: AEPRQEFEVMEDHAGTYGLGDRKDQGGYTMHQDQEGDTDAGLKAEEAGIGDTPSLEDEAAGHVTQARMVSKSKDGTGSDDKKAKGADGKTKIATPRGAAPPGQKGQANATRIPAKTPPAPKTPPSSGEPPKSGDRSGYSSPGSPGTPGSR

T3: eTau-4 peptide
T3 construct: also called synthetic eTau4 polypeptide
T3 peptide: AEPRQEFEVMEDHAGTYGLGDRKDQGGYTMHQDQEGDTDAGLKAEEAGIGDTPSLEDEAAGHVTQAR

B1: VH4/Vk1 (antibody, V domains shown)
VH: EVQLVESGGALVKPGGSLRLSCAASGFSFSKYGMSWVRQAPGKGLEWVATISSSGSRTYYPDSVKGRFTISRDNAKNTLYLQMNSLRAEDTAMYYCAISWDGAMDYWGQGTTVTVSS
VL: DVLMTQSPLSLPVTLGQPASISCKSSQSIVHSNGNTYLEWYLQKPGQSPQLLVYKVSNRFSGVPDRFSGSGSGTDFTLKISRVEAEDVGTYYCFQGSLVPWAFGGGTKVEIK
notes: member of the group m7; also called humanized IPN002 variant VH4/Vk1
B2: VH4/Vk2 (antibody, V domains shown)
VH: B1 VH
VL: B1 VL with L3V
notes: member of the group m7; also called humanized IPN002 variant VH4/Vk2
B3: humanized IPN002 variant VH2/Vk3 (antibody, V domains shown)
VH: B1 VH with Q3H, A97S
VL: B1 VL with L3V, T90V
B4: VH4/Vk3 (antibody, V domains shown)
VH: B1 VH
VL: B1 VL with L3V, T90V
notes: member of the group m7; also called humanized IPN002 variant VH4/Vk3
B5: VH4/Vk4 (antibody, V domains shown)
VH: B1 VH
VL: B1 VL with L3V, V53I, T90V
notes: member of the group m7; also called humanized IPN002 variant VH4/Vk4

Substitutions are numbered along the chain they refer to.

In the first test the target is T4, 383 amino acid recombinant tau (UniProt P10636-6 1-383, biotinylated where printed as biotin-rTau383 (position not given)).
T4 construct: also called rTau383
T4 sequence (P10636 other isoform, or with tags, fused parts or gaps limits assumed): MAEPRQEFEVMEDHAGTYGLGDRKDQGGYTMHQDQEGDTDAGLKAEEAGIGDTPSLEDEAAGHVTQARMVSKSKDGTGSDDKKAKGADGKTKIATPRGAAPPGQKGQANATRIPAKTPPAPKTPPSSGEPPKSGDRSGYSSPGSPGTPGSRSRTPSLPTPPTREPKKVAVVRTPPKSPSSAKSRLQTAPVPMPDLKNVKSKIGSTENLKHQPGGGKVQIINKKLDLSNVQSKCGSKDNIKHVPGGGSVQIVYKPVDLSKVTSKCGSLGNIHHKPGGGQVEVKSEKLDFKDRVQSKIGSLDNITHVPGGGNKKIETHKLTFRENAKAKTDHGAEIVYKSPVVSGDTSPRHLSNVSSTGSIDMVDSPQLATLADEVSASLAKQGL
Kind of test: Octet. On the technique in general: Biolayer interferometry detects binding as a change in optical thickness at a sensor tip.
For the molecule B1, the Kd is 2.12 nM, the off-rate constant (koff) was found to be 0.000297 s⁻¹ and the kon turned out to be 140000 M⁻¹ s⁻¹.
As to B2, the Kd stood at 1.88 nM, the koff stood at 0.000307 s⁻¹ and the kon was 163000 M⁻¹ s⁻¹.
As to B3, the Kd came out at 1.73 nM, the koff stood at 0.000232 s⁻¹ and the on-rate (kon) came out at 134000 M⁻¹ s⁻¹.
As for B4, the equilibrium dissociation constant (Kd) worked out at 0.571 nM, the off-rate constant (koff) worked out at 9.39e-05 s⁻¹ and the kon was found to be 164000 M⁻¹ s⁻¹.
Take B5: the Kd is 0.812 nM, the koff worked out at 0.000126 s⁻¹ and the kon came to 156000 M⁻¹ s⁻¹.

The next test addresses T1, eTau 1b. Description: relative binding affinity, method not named (Table 4).
Regarding B1, the Kd worked out at 0.359 nM.
Molecule B2 registered an equilibrium dissociation constant (Kd) of 0.483 nM.
B3 returned a Kd of 0.287 nM.
On to B4, for which the equilibrium dissociation constant (Kd) stood at 0.313 nM.
B5 registered a Kd of 0.535 nM.

Another test concerns the target T2, eTau 2. The test is described as above.
Regarding B1, binding was characterised by a dissociation constant (Kd) of 0.405 nM.
In turn, B2 gave a Kd of 0.451 nM.
B3 registered a Kd of 0.261 nM.
Same read-out and setting: under B4 stands 0.473 nM; under B5, 0.564 nM.

Another test deals with eTau1a (amino acids 2-166 of fetal tau) (Homo sapiens (Human), UniProt P10636 2-541). The description is as above.
Molecule B1 came in with a Kd of 0.198 nM.
Turning to B2, binding was put at a Kd of 0.191 nM.
In the case of B3, binding was put at a Kd of 0.327 nM.
For the molecule B4, binding was put at a Kd of 0.178 nM.
In turn, B5 showed a Kd of 0.325 nM.

The next test has as its target T4, 383 amino acid recombinant tau. The description is as above.
In the case of B1, the dissociation constant (Kd) was 0.187 nM.
With B2, the Kd worked out at 0.16 nM.
The same measure, in the same setting: next, B3: 0.223 nM; B4: 0.276 nM; B5: 0.379 nM.

For another test, the target named is eTau 4 (FIG. 17). Description: relative binding affinity, method not named (Table 4); fifth column, headed eTau 4.
The molecule B1 returned a Kd of 0.28 nM.
B2 returned a Kd of 0.291 nM.
As to B3, binding was characterised by a dissociation constant (Kd) of 0.219 nM.
The same measure, in the same setting: under B4 stands 0.636 nM; under B5, 0.462 nM.

The target in the next test is T3, eTau-4 peptide. Description: relative binding affinity, method not named (Table 4); sixth column, headed eTau 4.
B1 displayed a dissociation constant (Kd) of 0.498 nM.
As for B2, the equilibrium dissociation constant (Kd) was 0.467 nM.
As to B3, the dissociation constant Kd is 0.411 nM.
Take B4: the Kd came out at 0.629 nM.
On the same count and under the same terms, next, B5: 1.03 nM.

By Kd is commonly meant the concentration at which binding is half-saturated. Broadly, the koff is the rate constant with which the complex falls apart. In general, kon refers to a measure of how fast the partners come together.
